# Patent publication US20120134979A1, “METHODS AND COMPOSITIONS FOR THE TREATMENT OF SICKLE CELL DISEASE” (priority 2010, published 2012)
# Key:
# Type in all cases: in vivo, mouse
# SCD Tg mice [1] = assay: Hemolytic analysis of plasma of SCD Tg mice after chronic treatment; conditions: chronic PEG-ADA treatment
# Protocol: (§1) Chronic PEG-ADA therapy. SCD transgenic mice, at eight weeks of age, were divided to two groups. One group was injected with 2.5 U PEG-ADA weekly for 8 weeks. This dosing protocol was designated SCD with PEG-ADA treatment regimen (SCD+PEG-ADA). Another group was injected with normal saline for 8 weeks; it was designated as SCD without PEG-ADA treatment regimen (SCD). Wild-type mice (C57Bl/6) used as control were injected with saline or PEG-ADA as with the SCD groups.
# Hemolytic analysis. The hemoglobin, haptoglobin and total bilirubin in mouse plasma were quantified by ELISA kits following instructions provided by the vendor (BioAssay Systems, Hayword, Calif.).
# SCD Tg mice [2] = assay: 2,3-DPG in RBCs and saturated Hb in SCD Tg mice after chronic treatment
# Protocol: as §1
# (§2) Chronic treatment with A2BR antagonist, PSB1115. SCD transgenic mice or wild type mice (eight weeks of age) were divided to two groups, one groups was injected with 200 μg of PSB1115 (an A2B receptor antagonist: obtained from Tocris Bioscience, St. Louis, Mo.) in PBS, daily for 8 weeks. One of groups was injected with saline.
# 2,3-DPG analysis. 2,3-DPG concentration in RBCs was detected by a commercially available kit (Roche, Nutley, N.J., and as described in Ericson A, de Verdier C H. A modified method for the determination of 2,3-diphosphoglycerate in erythrocytes. Scandinavian journal of clinical and laboratory investigation. 1972; 29(1):84-90).
# Measurement of percentage of saturated Hb in mice. Percentage of saturated Hb (SpO2) in mice was measured by Oxysat (Kent Scientific Corp, CT). Mice were held in mouse holders (Kent Scientific Corp, CT) and Oxysat sensor was placed on a site approximately 1 cm from the base of the tail. When mouse was calm, the SpO2 was continuously recorded for about 2 minutes. The data were collected and SpO2 was calculated by average of SpO2 in two-minute measurement.
# SCD Tg mice [3] = assay: Urine measurements (proteinuria, osmolality) in SCD Tg mice after chronic PEG-ADA
# Protocol: as §1
# Mouse urine collection and measurements. Urine was collected using a metabolic cage (Bioseb, France) for proteinuria and creatinine analysis using a commercially available kit (Exocell, Philadelphia) as described Zhou, et al. Angiotensin receptor agonistic autoantibodies induce pre-eclampsia in pregnant mice. Nat. Med. 2008; 14(8):855-862). For urine osmolality analysis, mice were deprived of water for 24 hours, then urine was collected on Parafilm, transferred to 1.5 ml tube, the urine was diluted 10 times with distilled water and measured with vapor pressure osmometer (Wescor, Logan, Utah).
# SCD Tg mice [4] = assay: Hematological parameters of SCD Tg mice treated with PEG-ADA or PSB1115 for 8 weeks; conditions: 8 weeks treatment
# Excerpt: Mice. Berkley sickle cell disease transgenic mice (SCD Tg mice), expressing exclusively human sickle hemoglobin (HbS) were purchased from The Jackson Laboratory Inc (Paszty, C. Transgenic and gene knock-out mouse models of sickle cell anemia and the thalassemias. Curr Opin Hematol 4, 88-93, 1997). C57BL/6 mice used as controls were purchased from Harlan Laboratories. Adenosine receptor deficient mice were obtained from the following sources: A1R-deficient mice (Jurgen Schnermann, NIDDK, NIH); A2AR-deficient mice (Jiang-Fan Chen, Boston University School of Medicine); A2BR-deficient mice (Michael R. Blackburn, University of Texas-Houston Medical School); and A3R-deficient mice (Marlene Jacobson, Merck Research Laboratories). All receptor deficient mice were backcrossed at least 10 generations onto the C57Blk/6J background and were genotyped according to established protocols (Sun, D., et al. Mediation of tubuloglomerular feedback by adenosine: evidence from mice lacking adenosine receptors. Proc Natl Acad Sci USA 98, 9983-9988, 2001; Nemeth, Z. H., et al. Adenosine receptor activation ameliorates type 1 diabetes. FASEB J, 2007; Chen, J. F., et al. A2A adenosine receptor deficiency attenuates brain injury induced by transient focal ischemia in mice. J Neurosci 19, 9192-9200, 1999; Salvatore, C. A., et al. Disruption of the A3 adenosine receptor gene in mice and its effect on stimulated inflammatory cells. The Journal of Biological Chemistry 275, 4429-4434, 2000). Animals were maintained in accordance with institutional and NIH guidelines under research protocols that were reviewed and approved by the University of Texas Health Science Center at Houston Animal Welfare Committee.
# as §1, §2
# Morphological study of erythrocytes and quantification of reticulocytes by flow cytometry. Blood smears were stained using the WG16-500 ml kit (Sigma-Aldrich) for sickled cells and observed using 100× oil immersion objective of Olympus BX60 microscope. […] The percentages of sickled cells among the counted cells were calculated. Reticulocyte was labeled by Retic-COUNT Reagent (Becton Dickinson) and quantified by flow cytometry (Perumbeti, et al., A novel human gamma-globin gene vector for genetic correction of sickle cell anemia in a humanized sickle mouse model: critical determinants for successful correction. Blood. 2009; 114(6):1174-1185).
# SCD Tg mice [5] = assay: Lung inflammation (neutrophils, cytokines) after hypoxia/reoxygenation in SCD Tg mice; conditions: hypoxia-reoxygenation
# Excerpt: Hypoxia/reoxygenation of SCD Tg mice. SCD Tg mice were subjected to two-hour hypoxic condition with 8% oxygen. After hypoxia, mice were returned to normoxic conditions for four hours Wallace, et al. NKT cells mediate pulmonary inflammation and dysfunction in murine sickle cell disease through production of IFN-gamma and CXCR3 chemokines. Blood. 2009; 114(3):667-676). At the end of the experiments, mice were sacrificed and blood collected for adenosine measurement, sickling and hemolytic analysis.
# Immunohistochemistry to assess neutrophil infiltration in the lung. To quantify neutrophils, a specific neutrophil antibody, was used as described (Zhou, et al., Enhanced airway inflammation and remodeling in adenosine deaminase-deficient mice lacking the A2B adenosine receptor. J. Immunol. 2009; 182(12):8037-8046). Rehydrated slides were quenched with 3% hydrogen peroxide, Ag retrieval performed (Dako), and endogenous avidin and biotin blocked with a Biotin Blocking System (Dako). […] Quantification of distal airway neutrophils-positive cells was performed on 20 fields/mouse lung section at ×20 using software analysis (Image Pro Plus 4.0; Media Cybernetics, Bethesda, Md., USA).
# ELISA for INF-γ, IL-6, IL-1β and GM-CSF measurement in the mouse lung homongenates. INF-γ, IL-6, IL-1β and GM-CSF levels in lung homogenates were determined using ELISA kits (QUANGI).
molecule,measurement,setting,value
"PEG-ADA: polyethylene glycol-modified adenosine deaminase, a drug used to lower adenosine concentrations in ADA-deficient humans (protein, UniProt P56658 2-363, looked up, PEGylated) Adenosine deaminase: AQTPAFNKPKVELHVHLDGAIKPETILYYGRKRGIALPADTPEELQNIIGMDKPLSLPEFLAKFDYYMPAIAGCREAVKRIAYEFVEMKAKDGVVYVEVRYSPHLLANSKVEPIPWNQAEGDLTPDEVVSLVNQGLQEGERDFGVKVRSILCCMRHQPSWSSEVVELCKKYREQTVVAIDLAGDETIEGSSLFPGHVKAYAEAVKSGVHRTVHAGEVGSANVVKEAVDTLKTERLGHGYHTLEDATLYNRLRQENMHFEVCPWSSYLTGAWKPDTEHPVVRFKNDQVNYSLNTDDPLIFKSTLDTDYQMTKNEMGFTEEEFKRLNINAAKSSFLPEDEKKELLDLLYKAYGMPSPASAEQCL",plasma Hb,SCD Tg mice [1],decreased
same,plasma haptoglobin,SCD Tg mice [1],increased
same,total bilirubin,SCD Tg mice [1],decreased
same,percentage of saturated Hb,SCD Tg mice [2]; chronic PEG-ADA treatment,increased
same,"2,3-DPG levels in the RBCs","SCD Tg mice [2]; steady state, 8 weeks treatment",reduction
same,proteinuria,SCD Tg mice [3],decreased
same,urine osmolality,SCD Tg mice [3],increased
same,HCT,SCD Tg mice [4],30.15 ± 8.90 %
same,Hb,SCD Tg mice [4],7.71 ± 2.64 g/dL
same,MCH,SCD Tg mice [4],12.38 ± 2.85 pg
same,MCHC,SCD Tg mice [4],25.33 ± 1.21 g/dL
same,MCV,SCD Tg mice [4],48.58 ± 8.79 fL
same,RDW,SCD Tg mice [4],28.03 ± 1.14 %
same,Reticulocyte,SCD Tg mice [4],43 ± 4.52 %
same,Sickle cell,SCD Tg mice [4],10.35 ± 0.39 %
same,WBC,SCD Tg mice [4],15.00 ± 2.79 k/μl
same,RBC,SCD Tg mice [4]; mean ± SEM,6.15 ± 1.01 M/μl
same,neutrophil infiltration in the lungs,SCD Tg mice [5]; image quantification,significantly lowered
same,"proinflammatory cytokines in the lungs (INF-γ, IL-6, IL-1β and GM-CSF)",SCD Tg mice [5]; lung homogenates,significantly decreased
